In patent US10039812B2, “Therapeutic for treating clostridium difficile infection” (priority 2012, dated 2018):

B1: proteinase K: a proteinase used to digest biofilm constituents (protein, UniProt P06873 106-384, looked up)
Proteinase K: AAQTNAPWGLARISSTSPGTSTYYYDESAGQGSCVYVIDTGIEASHPEFEGRAQMVKTYYYSSRDGNGHGTHCAGTVGSRTYGVAKKTQLFGVKVLDDNGSGQYSTIIAGMDFVASDKNNRNCPKGVVASLSLGGGYSSSVNSAAARLQSSGVMVAVAAGNNNADARNYSPASEPSVCTVGASDRYDRRSSFSNYGSVLDIFGPGTSILSTWIGGSTRSISGTSMATPHVAGLAAYLMTLGKTTAASACRYIADTANKGDLSNIPFGTVNLLAYNNYQA
B2: RNase: RNaseA enzyme used to digest biofilm constituents (protein, UniProt P61823 27-150, looked up)
Ribonuclease pancreatic: KETAAAKFERQHMDSSTSAASSSNYCNQMMKSRNLTKDRCKPVNTFVHESLADVQAVCSQKNVACKNGQTNCYQSYSTMSITDCRETGSSKYPNCAYKTTQANKHIIVACEGNPYVPVHFDASV

Assays:
[1] = system: C. difficile R20291 biofilm; experiment: DNase, RNase and proteinase K digests of biofilm in liquid culture; conditions: 15 minutes at the concentrations indicated (FIG. 8)
[2] = system: C. difficile 630Δerm biofilm; experiment: DNase, RNase and proteinase K digests of biofilm (floc) in liquid culture
[3] = system: C. difficile strain 630Δerm; experiment: Inhibition of biofilm formation in TC flasks; conditions: 10 mg/ml in the growth media; incubated statically for six days (FIG. 9)
[4] = 1 mg/ml, 15 minute treatment, room temperature

Molecule | Degradation of the biofilm [1] | Degradation of the biofilm (floc produced in static culture) [2, 4] | Degradation of the biofilm (floc produced in static culture) ([2]; concentration increased to 2 mg/ml proteinase K (data not shown)) | Degradation of the biofilm (floc produced in static culture) ([2]; incubation time increased to 24 hours (data not shown)) | Formation of biofilm in liquid media [3] | Degradation of the biofilm (floc produced in static culture) ([2]; 100 ug/ml, 15 minute treatment, room temperature)
B1 | only degraded by DNase treatment | partial degradation with proteinase K was not observed | partial degradation | partial degradation | decreases biofilm formation | 
B2 | only degraded by DNase treatment | did not disrupt the biofilm |  |  |  | did not disrupt the biofilm
